Data on 51 molecules can be found in patent publication US20050202033A1.

By Kd is commonly meant a measure of binding affinity in units of concentration.

For one test, the target named is recombinant human or murine heat shock protein 70 (hsp70) (human or murine) (UniProt P0DMV8). As to the kind of experiment: binding inhibition assay (Hill plot) against tritiated … on hsp70.
Chain of recombinant human or murine heat shock protein 70 (hsp70) (human or murine) (P0DMV8 whole entry): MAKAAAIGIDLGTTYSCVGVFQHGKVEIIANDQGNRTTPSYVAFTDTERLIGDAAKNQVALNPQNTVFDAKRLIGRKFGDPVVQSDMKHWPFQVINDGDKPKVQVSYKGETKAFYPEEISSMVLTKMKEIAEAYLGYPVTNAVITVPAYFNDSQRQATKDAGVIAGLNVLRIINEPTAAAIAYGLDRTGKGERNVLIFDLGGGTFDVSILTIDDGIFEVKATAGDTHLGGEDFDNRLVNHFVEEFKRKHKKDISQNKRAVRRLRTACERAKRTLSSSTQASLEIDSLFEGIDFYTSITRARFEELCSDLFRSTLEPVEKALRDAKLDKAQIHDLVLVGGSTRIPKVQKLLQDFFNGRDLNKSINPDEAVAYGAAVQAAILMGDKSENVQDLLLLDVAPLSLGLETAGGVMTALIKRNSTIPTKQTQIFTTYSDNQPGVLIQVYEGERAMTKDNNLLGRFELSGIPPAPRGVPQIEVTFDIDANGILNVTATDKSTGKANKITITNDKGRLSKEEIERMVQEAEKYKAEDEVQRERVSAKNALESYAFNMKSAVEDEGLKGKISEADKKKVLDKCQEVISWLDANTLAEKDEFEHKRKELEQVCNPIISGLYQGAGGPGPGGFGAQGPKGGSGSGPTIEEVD
In the case of “[…] (HPV Strain 16 E7 11-20) (peptide; other documents disagree on this pair)”, the Kd was 91 µM.

In the next test the target is T1, recombinant human or murine heat shock protein 70 (hsp70) (human or murine), P0DMV8. As to the kind of experiment: binding inhibition assay (Hill plot) or Scatchard analysis of the reference on hsp70.
T1 sequence (P0DMV8 whole entry): as above
As for ALFDIESKVGSGHWDFAWPW (modifications not checked), the Kd is 22 µM.

Another test addresses recombinant human or murine heat shock protein 70 (hsp70) (human or murine) (UniProt P0DMV8). As to the kind of experiment: on hsp70.
As for “[…] (HIV Pol: 464-472) (peptide; other documents disagree on this pair)”, the Kd turned out to be 83 µM.

For another test, the target named is T1, recombinant human or murine heat shock …. Briefly: binding inhibition assay (Hill plot) against tritiated … on hsp70.
Turning to SIINFEKLGSGRKLFFNLRW (modifications not checked) [SIINFEKLgsg…], the Kd came to 7 µM.

In the case of TLGIVCPI (modifications not checked) [TLGIVCPI (HPV Strain 16 E7 86-93)], the Kd was 187 µM.

In the case of ALFDIESKVGSGNLLRLTGW (modifications not checked) [PSMA P2 hybrid antigen with NLLRLTGW], the Kd was determined as 1.3 µM.

On to IMDQVPFSVGSGHWDFAWPW (modifications not checked), for which the Kd was found to be 155 µM.

Take ALFDIESKV (modifications not checked) [… (Prostate Specific Membrane Antigen 771-779)]: the Kd was 145 µM.

As for YMDGTMSQV (modifications not checked) [… (Tyrosinase 368-376, 370D)], the Kd is 204 µM.

SIINFEKL (modifications not checked) [SIINFEKL (ovalbumin amino acids 257-264)]: the Kd was 279 µM.

On to IMDQVPFSVGSGNLLRLTGW (modifications not checked), for which the Kd is 3.1 µM.

On to YMLDLQPETTGSGHWDFAWPW (modifications not checked), for which the Kd was 27 µM.

For HWDFAWPW (modifications not checked), the Kd worked out at 120 µM.

Regarding SIINFEKLGSGFYQLALTW (modifications not checked) [SIINFEKLgsgFYQLALTW], the Kd was 1.43 µM.

For HWDFAWPWGSGSIINFEKL (modifications not checked) [HWDFAWPWgsgSIINFEKL], the Kd was 4.3 µM.

With YMDGTMSQVGSGNLLRLTGW (modifications not checked), the Kd is 2.65 µM.

Consider FYQLALTW (modifications not checked), for which the dissociation constant (Kd) worked out at 5.9 µM.

For the molecule SIINFEKLGSGHWDFAWPW (modifications not checked) [SIINFEKLgsgHWDFAWPW], the Kd was determined as 40 µM.

For SIINFEKLGSGNLLRLTGW (modifications not checked) [SIINFEKLgsgNLLRLTGW], the Kd amounted to 1.2 µM.

Turning to RKLFFNLRW (modifications not checked), the Kd came to 15 µM.

HWDFAWPWGSGYMDGTMSQV (modifications not checked) [HWDFAWPWgsg…]: the Kd is 29 µM.

With IMDQVPFSV (modifications not checked) [… (Gp100 209-217, T210M)], the Kd amounted to 2560 µM.

In the case of NLLRLTGW (modifications not checked), the Kd is 1.85 µM.

Take YMDGTMSQVGSGHWDFAWPW (modifications not checked): the Kd was 24 µM.

Consider TLGIVCPIGSGHWDFAWPW (modifications not checked) [TLGIVCPIgsgHWDFAWPW], for which the Kd worked out at 9.1 µM.

Take TLGIVCPIGSGNLLRLTGW (modifications not checked) [TLGIVCPIgsgNLLRLTGW]: the Kd amounted to 5.2 µM.

The next test shares this target. As to the kind of experiment: binding inhibition assay as in Example 2, on hsp70.
For the molecule GLYDGMEHLGSGNLLRLTGW (modifications not checked), the Kd is 1.1 µM.

Consider SVYDFFVWLGSGNLLRLTGW (modifications not checked), for which the Kd was determined as 2.9 µM.

Consider YMDGTMSQV (modifications not checked) [… (Tyrosinase 368-376, 370D)], for which the Kd worked out at 209 µM.

With IMDQVPFSVGSGNLLRLTGW (modifications not checked), the Kd came out at 0.9 µM.

Consider GLYDGMEHL (modifications not checked) [… (MAGE-10: 254-262)], for which the Kd worked out at 48 µM.

In the case of KASEKIFYVGSGNLLRLTGW (modifications not checked), the Kd is 1.4 µM.

Take KASEKIFYV (modifications not checked) [… (SSX-2: 41-49)]: the Kd turned out to be 57 µM.

As to SLLMWITQVGSGNLLRLTGW (modifications not checked), the Kd was found to be 2.2 µM.

Take SVYDFFVWL (modifications not checked) [… (Trp-2: 180-188)]: the Kd was found to be 81 µM.

YMDGTMSQVGSGNLLRLTGW (modifications not checked): the Kd came out at 1.8 µM.

Consider IMDQVPFSV (modifications not checked) [… (Gp100 209-217, T210M)], for which the Kd was 2570 µM.

With YLEPGPVTVGSGNLLRLTGW (modifications not checked), the Kd stood at 2 µM.

As for YLEPGPVTV (modifications not checked) [… (GP100: 280-288 (288V))], the Kd worked out at 71 µM.

The next test shares this target. As to the kind of experiment: competition against a labeled reporter peptide on HSP70; Kd calculated from IC50 (Hill plot).
For the molecule SIINFEKLGSGNLLRLTGW (modifications not checked) [SIINFEKLgsgNLLRLTGW], the fold increase in affinity over … (SEQ ID NO:368) is 15 fold.

A further test has the same target. Briefly: on hsp70.
Turning to AIIRILQQLGSGNLLRLTGW (modifications not checked) [ALIRJ… (as printed; hybrid antigen of the Vpr: 59-67 epitope)], the Kd came to 0.6 µM.

As for VIYQYMDDL (modifications not checked) [… (HIV Pol: 334-342)], the Kd was determined as 91 µM.

Turning to NLLRLTGWGSGSIINFEKL (modifications not checked), the Kd was 1.6 µM.

As for VLDVGDAYFSV (modifications not checked) [… (HIV Pol: 263-273)], the Kd was 110 µM.

Turning to SLFNTVATL (modifications not checked) [… (HIV Gag/p17: 77-85 (79F))], the Kd is 35 µM.

Take AFHHVAREL (modifications not checked): the Kd is 84 µM.

Take SIINFEKL (modifications not checked) [SIINFEKL (ovalbumin amino acids 257-264)]: the Kd is 235 µM.

As to ALKHRAYELGSGNLLRLTGW (modifications not checked), the Kd worked out at 1.1 µM.

As to ALKHRAYEL (modifications not checked), the Kd turned out to be 97 µM.

As for RGYVYQGL (modifications not checked) [RGYVYQGL (VSV nucleoprotein amino acids 52-59)], the Kd came to 82 µM.

In the case of ILKEPVHGVGSGNLLRLTGW (modifications not checked), the Kd worked out at 1.2 µM.

In the case of SLYNTVATLGSGNLLRLTGW (modifications not checked), the Kd amounted to 1.8 µM.

Take VIYQYMDDLGSGNLLRLTGW (modifications not checked): the Kd amounted to 1.7 µM.

For VLDVGDAYFSVGSGNLLRLTGW (modifications not checked), the dissociation constant Kd amounted to 2 µM.

As for AIIRILQQL (modifications not checked) [… (HIV Vpr: 59-67)], the Kd was 93 µM.

Regarding AFHHVARELGSGNLLRLTGW (modifications not checked), the Kd amounted to 2.1 µM.

Regarding SLFNTVATLGSGNLLRLTGW (modifications not checked), the Kd was 1.9 µM.
